Drawing on patent EP4818206A1, this text covers EC50 and MFI (max) for 1 substance.

Assay [1] concerns the target human CD84 (NCBI Accession No. NP_001171808.1), on cells (human) (UniProt Q9UIB8). In words: flow cytometry on HEK293T-hCD84 cells. For orientation: A flow cytometer gives signals particle by particle.
The target of assay [2] is cynomolgus CD84 (NCBI Accession No. XM_005541244.3), on HEK293T cells (cynomolgus). In words: flow cytometry on HEK293T-Cyno-CD84 cells.

Sequence of UniProt Q9UIB8 (Q9UIB8 22-345): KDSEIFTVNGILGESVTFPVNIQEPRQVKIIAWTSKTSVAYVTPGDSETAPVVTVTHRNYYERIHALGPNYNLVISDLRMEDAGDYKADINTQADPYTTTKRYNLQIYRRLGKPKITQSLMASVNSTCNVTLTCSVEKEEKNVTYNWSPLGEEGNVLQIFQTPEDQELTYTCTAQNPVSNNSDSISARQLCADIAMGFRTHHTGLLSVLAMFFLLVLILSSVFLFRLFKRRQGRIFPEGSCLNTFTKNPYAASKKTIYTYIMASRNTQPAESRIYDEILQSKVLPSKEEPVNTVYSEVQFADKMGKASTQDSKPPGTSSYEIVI

For “CD84.1.21 (Biolegend; Cat. No. 326002) (antibody)”, in assay [1], the concentration for a half-maximal effect (EC50) – broadly, the midpoint of the concentration-response curve – came to 2.09 nM and the MFI (max) stood at 134000 MFI. In assay [2], this substance registered an EC50 of 16.6 nM and an MFI (max) of 57700 MFI.
